Results as given in patent publication US20030224036A1, “Hla class I a2 tumor associated antigen peptides and vaccine compositions” (priority 1999, published 2003).

What was measured:
Conditions in all cases: remark: other sources report otherwise
HLA-A*0206 (human) [1] = assay: competitive binding assay, purified HLA
HLA-A*0206 (human) [2] = assay: competitive inhibition assay, purified HLA
HLA-A*6802 (human) [3] = assay: competitive binding assay, purified HLA
HLA-A*6802 (human) [4] = assay: competitive inhibition assay, purified HLA
HLA-A*0201 (human) [5] = assay: competitive binding assay, purified HLA
HLA-A*0201 (human) [6] = assay: competitive inhibition assay, purified HLA

For YLSGANLNV [CEA.605V9], the IC50 (HLA-A*0206 (human) [1]) was 80 nM and the IC50 (HLA-A*0206 (human) [2]) was 80 nM.

VVLGVVFGI [Her2/neu.665] gave an IC50 (HLA-A*6802 (human) [3]) of 2000 nM and an IC50 (HLA-A*6802 (human) [4]) of 2000 nM.

YLQLVFGIEV [MAGE2.157] gave an IC50 (HLA-A*0201 (human) [5]) of 50 nM and an IC50 (HLA-A*0201 (human) [6]) of 50 nM.

Binder VMAGVGSPYV [Her2/neu.773] has an IC50 (HLA-A*0201 (human) [6]) of 200 nM.
